Experiments:
[1] = molecular target: the molecule itself; experiment: SEC-MALS; Shodex PROTEIN KW-802.5 column, 200 mM NaCl, 20 mM Tris-Cl pH 7.5, protein at 1 mg/mL, room temperature (23°C); self-association, dimer
[2] = molecular target: the molecule itself; experiment: SEC-MALS; data not shown; 'monodispersed dimers, as observed with wild-type'; method taken from the wild-type experiment
[3] = molecular target: the molecule itself; experiment: cross-linking; spontaneous disulfide cross-linking of introduced cysteines in purified KbC in TBS7.5 (200 mM NaCl, 10 mM Tris pH 7.5, 5 mM ß-mercaptoethanol); SDS-PAGE in reducing (250 mM ß-mercaptoethanol) and oxidizing conditions

Protein	stoichiometry N [2]	other results
ClC-Kb C-terminal domain (domain or fragment, human, UniProt P51801 538-684, looked up, ClC-Kb chloride channel, human, C-terminal cytoplasmic domain, amino acids 538-684; read here as KbC following MBP; MBP was removed with Factor Xa and washed away on the cation-exchange column; also called ClC-Kb cytoplasmic domain; ClC-Kb C-terminal cytoplasmic domain; source: E. coli, purified (amylose column, Factor Xa digestion, cation exchange); not shown: MBP, N-terminal, cleaved) RNIGSHRVRVEHFMNHSITTLAKDMPLEEVVKVVTSTDVAKYPLVESTESQILVGIVRRAQLVQALKAEPPSWAPGHQQCLQDILAAGCPTEPVTLKLSPETSLHEAHNLFELLNLHSLFVTSRGRAVGCVSWVEMKKAISNLTNPP		stoichiometry N [1]: 2
ClC-Kb C-terminal domain double mutant L603C-H645C (domain or fragment, human, UniProt P51801 538-684, looked up, ClC-Kb chloride channel, human, C-terminal cytoplasmic domain, amino acids 538-684, L603C and H645C; also called 603-645 cysteine double mutant; source: E. coli, purified (amylose column, Factor Xa digestion, cation exchange); not shown: MBP, N-terminal, cleaved) RNIGSHRVRVEHFMNHSITTLAKDMPLEEVVKVVTSTDVAKYPLVESTESQILVGIVRRAQLVQACKAEPPSWAPGHQQCLQDILAAGCPTEPVTLKLSPETSLHEACNLFELLNLHSLFVTSRGRAVGCVSWVEMKKAISNLTNPP	2	
ClC-Kb C-terminal domain with the L650C mutation (domain or fragment, human, UniProt P51801 538-684, looked up, ClC-Kb chloride channel, human, C-terminal cytoplasmic domain, amino acids 538-684, L650C; also called ClC-Kb-L650C; L650C mutant; source: E. coli, purified (amylose column, Factor Xa digestion, cation exchange); not shown: MBP, N-terminal, cleaved) RNIGSHRVRVEHFMNHSITTLAKDMPLEEVVKVVTSTDVAKYPLVESTESQILVGIVRRAQLVQALKAEPPSWAPGHQQCLQDILAAGCPTEPVTLKLSPETSLHEAHNLFECLNLHSLFVTSRGRAVGCVSWVEMKKAISNLTNPP		binding result [3]: binds
ClC-Kb C-terminal domain double mutant K604C-A644C (domain or fragment, human, UniProt P51801 538-684, looked up, ClC-Kb chloride channel, human, C-terminal cytoplasmic domain, amino acids 538-684, K604C and A644C; also called 604-644 cysteine double mutant; source: E. coli, purified (amylose column, Factor Xa digestion, cation exchange); not shown: MBP, N-terminal, cleaved) RNIGSHRVRVEHFMNHSITTLAKDMPLEEVVKVVTSTDVAKYPLVESTESQILVGIVRRAQLVQALCAEPPSWAPGHQQCLQDILAAGCPTEPVTLKLSPETSLHECHNLFELLNLHSLFVTSRGRAVGCVSWVEMKKAISNLTNPP	2	
